PMC3871700, “Unusual N-Prenylation in Diazepinomicin Biosynthesis: The Farnesylation of a Benzodiazepine Substrate Is Catalyzed by a New Member of the ABBA Prenyltransferase Superfamily” (PLoS ONE, 2013)

B1: DzmP (Micromonospora sp. RV115) (protein)
chain: MSGTPEVAELYSTIEESARQLDVPCSRDRVWPVLSAYGDAFAHPEAVVAFRVATALRHAGELDCRFRTHPDDRDPYASAIARGLTPRTDHPIGGLLAEVHRRCPVESHGIDFGVVGGFKKIYAAFAPDELQVASVLAGIPAMPRSLAANAGFFTRHGLDDRVGVLGFDYPARTVNVYFNDVPRECFEPETIRSTLRRTGMAEPSEQMLRLGAGAFGLYVTLGWDSPEIERICYAAATTDLTTLPVPVEPEIEKFVKSVPYGGGDRKFVYGVALTPKGEYYKLESHYKWKPGAVNFI
notes: His8-tagged DzmP (296 amino acids)
B2: Ssrg_00986 (Streptomyces griseoflavus Tu4000) (protein)
chain: MSGTSEADEICSAVTETAGRLGIAFSRDKVWPILSAYGDAFAHAMPLAFRMATGPQHAGDVDCRFITHPKDRNPYPLAVSKGLTPKTSHPVGTLLSEIEERFPIDGYGIDFGVVNGFTKVYAGFAPQDLQNASKLVEIPAMPRSLAGNFDFFVRHGLDDKVAFVAVDYLHRTVNVYFNDVPAACFESDGIRRMLRDLGLPGPSDRMLGIGGQAFGLYITLNWDSPAIERFCFGVTTTDLSSLPVSIEPQLEKFAHCVPYGGADRKFVYGVAAAPEGEYYKLETHYKWNPGTVAFI
notes: His8-tagged Ssrg_00986 (295 amino acids)

Assays:
Assay in all cases: purified protein
purified protein [1] = substrate: CC(C)=CCC/C(C)=C/CC/C(C)=C/CO[P@@](=O)(O)OP(=O)(O)O; details: […],6-DHN as co-substrate; Mg2+ stimulates but is not required
purified protein [2] = substrate: CC(C)=CCC/C(C)=C/COP(=O)(O)OP(=O)(O)O; details: […],6-DHN as co-substrate; Mg2+ stimulates but is not required
purified protein [3] = substrate: O=C1Nc2ccccc2Nc2ccccc21; assay type: biochemical, Micromonospora sp. RV115; details: FPP as co-substrate; Mg2+ stimulates but is not required
purified protein [4] = substrate: Oc1ccc2c(O)cccc2c1; assay type: biochemical, Micromonospora sp. RV115; details: FPP as co-substrate; Mg2+ stimulates but is not required
purified protein [5] = substrate: Oc1ccc2c(O)cccc2c1; assay type: biochemical, Streptomyces griseoflavus; details: FPP as co-substrate; Mg2+ stimulates but is not required

Protein	Km (purified protein [1])	Km (purified protein [2])	Km (purified protein [3])	K0.5 (purified protein [4])	K0.5 (purified protein [5])
B1	20 µM	4.9 ± 0.9 µM	133 ± 30 µM	18 ± 1 µM	–
B2	45 µM	45 µM	–	–	96 ± 11 µM
